Data as given in patent US20180127476A1 (Janssen / Centocor, published 2018).
Numbered stars: 1 amine (or outer) side, 2 acyl side, 3 side chain; on linkers, the order of the positions; unused ones are H or OH. Bridge positions count the residues as written; N and C are the ends. Square brackets hold non-standard residues; d marks the D form. Side chains are listed from the residue outwards. * marks the point of attachment. m‑COPhCH2 = meta-toluoyl group on the Ile3 alpha-amine, its methyl linked by thioether to hCys31, O=C(c1cccc(C[*:3])c1)[*:2]; C18 diacid = O=C(O)CCCCCCCCCCCCCCCCC(=O)*; γGlu = O=C(O)[C@H](CCC(=O)[*:2])N[*:1]; Palmitoyl = CCCCCCCCCCCCCCCC(=O)*; hCys = N[C@@H](CCS)C(=O)O; AEEA = NCCOCCOCC(=O)O

T1: human NPY2R Gi-protein coupled receptor (human, UniProt P49146 1-381)
T1 sequence (looked up): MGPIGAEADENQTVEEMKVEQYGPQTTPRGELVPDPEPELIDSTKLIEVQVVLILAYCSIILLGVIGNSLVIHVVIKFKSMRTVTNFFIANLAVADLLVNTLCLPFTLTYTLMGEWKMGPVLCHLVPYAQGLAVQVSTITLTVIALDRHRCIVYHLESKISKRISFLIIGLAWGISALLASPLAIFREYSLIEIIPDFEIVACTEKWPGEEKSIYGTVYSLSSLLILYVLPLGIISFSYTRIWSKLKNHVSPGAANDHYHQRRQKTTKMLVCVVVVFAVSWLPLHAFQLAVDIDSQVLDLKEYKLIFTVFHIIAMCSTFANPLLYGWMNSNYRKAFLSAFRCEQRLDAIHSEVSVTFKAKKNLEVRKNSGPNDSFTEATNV


Each binder was assayed against T1, human NPY2R Gi-protein coupled receptor (assay: cell-based or functional assay).

Y2R EC50 (nM), inhibition of forskolin-induced cAMP (hY2 assay) [nM]	Binder
0.02	GISPEAPGEKASPEELNRYYASLRHYLNEVTRQRY-NH2 (lactam N-29; also: psi-(R35,Y36) reduced amide bond) [Cyclic PYY Analog SEQ ID NO:70]
1.75	GISPEAPGEK([AEEA-AEEA-γGlu-C18 diacid])ASPEELNRYYASLRHYLNEVTRQRY-NH2 (lactam N-29; also: psi-(R35,Y36) reduced amide bond) [Cyclic PYY Analog SEQ ID NO:72]

The next lines start with the binder.

Binder	Y2R EC50 (nM), inhibition of forskolin-induced cAMP (hY2 assay) [nM]
{m‑COPhCH2}-IEPEAPGEDASPEELNRYYASLRAYLNK([γGlu-Palmitoyl])[hCys]TRQRY-NH2 (bridge N-29; not fully specified (bridges)) [Cyclic PYY Analog SEQ ID NO:22]	4.4
{m‑COPhCH2}-IAPEAPGEDASPEELNRYYASLRAYLNK([γGlu-Palmitoyl])[hCys]TRQRY-NH2 (bridge N-29; not fully specified (bridges)) [Cyclic PYY Analog SEQ ID NO:21]	0.49
